Reference: paper PMC11146434, “Mitigation of TDP-43 toxic phenotype by an RGNEF fragment in amyotrophic lateral sclerosis models” (Brain, 2023)

B1: His-MBP-RGNEF^1–275 (domain or fragment, human, UniProt Q8N1W1 1-275, looked up)
chain: MELSCSEAPLYGQMMIYAKFDKNVYLPEDAEFYFTYDGSHQRHVMIAERIEDNVLQSSVPGHGLQETVTVSVCLCSEGYSPVTMGSGSVTYVDNMACRLARLLVTQANRLTACSHQTLLTPFALTAGALPALDEELVLALTHLELPLEWTVLGSSSLEVSSHRESLLHLAMRWGLAKLSQFFLCLPGGVQALALPNEEGATPLDLALREGHSKLVEDVTNFQGRWSPSFSRVQLSEEASLHYIHSSETLTLTLNHTAEHLLEADIKLFRKYFWDR
notes: Detailed purification protocol is in the Supplementary Methods; also called His-NF242; NF242 (in the SPR experiments); source: E. coli, purified (Ni-IMAC); not shown: MBP, N-terminal, kept
B2: His-RRM-1 (domain or fragment, human, UniProt Q13148 101-191, looked up)
chain: QKTSDLIVLGLPWKTTEQDLKEYFSTFGEVLMVQVKKDLKTGHSKGFGFVRFTEYETQVKVMSQRHMIDGRWCDCKLPNSKQSQDEPLRSR
notes: source: E. coli, purified (Ni-IMAC)

Legend:
[1] = biological target: B1; assay: SPR; His-MBP-RGNEF^1–275 amine-coupled on a carboxymethyl dextran chip; TDP-43 fragments as analytes; 1× PBS, 0.1% Tween-20; 22°C
[2] = biological target: T1, His-TDP-43 1-269 (human, UniProt Q13148 1-269); assay: SPR; competition: 3′-biotinylated RNA oligo on a neutravidin chip; 100 nM His-TDP-43^1–269 pre-incubated 30 min at room temperature with 1 or 10 μM His-MBP-RGNEF^1–275, then injected; 10 mM Tris pH 8.0, 150 mM NaCl, 2 mM MgCl2, 0.05% Tween-20, 1 μM BSA
[3] = biological target: T2, His-GST-TDP-43^wt (human, UniProt Q13148 1-414); assay: SPR; His-MBP-RGNEF^1–275 amine-coupled on a carboxymethyl dextran chip (2000 to 8000 µRIU); His-GST-TDP-43^wt as analyte; 20 mM HEPES pH 7.5, 50 mM KCl, 0.5 mM MgCl2, 50 mM NaCl, 0.05% Tween-20; 22°C; details: both partners purified
T2 construct: also called full-length wild-type TDP-43 with an N-terminal GST fusion; source: E. coli, purified (Ni-IMAC); not shown: GST, N-terminal, kept

[4] = biological target: T1, His-TDP-43 1-269; assay: SPR; 100 nM TDP-43 1-269, no NF242; 10 mM Tris pH 8.0, 150 mM NaCl, 2 mM MgCl2, 0.05% Tween-20, 1 uM BSA; 30 min pre-incubation at room temperature; SPR at 22 C (stated for the protein-protein SPR); 80 RIU RNA immobilized; details: protein: recombinant; tags: N-terminal 6xHis (pQE30); label: 3' biotin
Target sequence in this assay (Q13148 1-269): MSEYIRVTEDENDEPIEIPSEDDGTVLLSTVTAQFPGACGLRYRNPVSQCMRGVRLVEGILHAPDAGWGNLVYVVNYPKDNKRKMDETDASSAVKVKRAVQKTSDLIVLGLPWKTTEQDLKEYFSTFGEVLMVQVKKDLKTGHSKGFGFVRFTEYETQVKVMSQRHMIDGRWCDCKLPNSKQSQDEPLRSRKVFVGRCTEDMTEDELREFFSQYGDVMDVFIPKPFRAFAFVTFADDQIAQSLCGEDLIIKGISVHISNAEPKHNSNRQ

T2 sequence (Q13148 whole entry, the tested form may be a part): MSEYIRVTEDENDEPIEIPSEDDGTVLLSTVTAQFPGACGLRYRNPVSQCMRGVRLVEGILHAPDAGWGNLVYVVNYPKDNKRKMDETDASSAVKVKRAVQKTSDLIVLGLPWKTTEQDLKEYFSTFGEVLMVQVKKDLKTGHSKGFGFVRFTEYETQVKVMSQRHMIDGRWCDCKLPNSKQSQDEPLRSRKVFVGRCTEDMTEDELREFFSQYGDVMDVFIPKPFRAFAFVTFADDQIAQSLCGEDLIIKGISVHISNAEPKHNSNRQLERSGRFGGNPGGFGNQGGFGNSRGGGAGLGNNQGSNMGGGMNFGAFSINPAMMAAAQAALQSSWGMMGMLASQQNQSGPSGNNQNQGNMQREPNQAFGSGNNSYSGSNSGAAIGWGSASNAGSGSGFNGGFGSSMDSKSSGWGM

Molecule: His-TDP-43^1–269 (from UniProt Q13148 1-269) (domain or fragment)
- Kd [1]: 4110 nM

Molecule: B1
- percent reduction of the signal of TDP-43 on the RNA chip at 1 μM NF242 [2]: 10%
- percent reduction of the signal of TDP-43 on the RNA chip at 10 μM NF242 [2]: 50%
- Kd [3]: 1780 nM

Molecule: B2
- binding result ([1]; both partners purified): binds

Molecule: GUGUGUGAAUGAAUAAA (ssRNA) [3'-biotinylated RNA oligo]
- binding result [4]: binds
